Laboratory results published in paper PMC3416671, “Neuronal RING finger protein 11 (RNF11) regulates canonical NF-κB signaling” (Journal of Neuroinflammation, 2012).
Values belong to the binder of their own block, whether it stands above or below them.

Biological target: T1, endogenous RNF11 (murine primary cortical neurons) (mouse (endogenous in primary cortical …, UniProt Q9QYK7 1-154))
T1 construct: RING finger protein 11 (RNF11), endogenous in primary cortical neurons of C57BL/6 mice; also called RING finger protein 11; source: endogenous, murine primary cortical neuron lysate
T1 sequence (looked up): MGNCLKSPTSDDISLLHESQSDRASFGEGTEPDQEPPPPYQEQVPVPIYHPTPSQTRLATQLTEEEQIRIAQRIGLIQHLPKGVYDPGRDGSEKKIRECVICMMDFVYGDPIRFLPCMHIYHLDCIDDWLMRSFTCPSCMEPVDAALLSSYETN
Assay: co-IP; lysates of murine primary cortical neurons stimulated with 10 ng/ml TNF-α for 0 or 30 minutes; IP with RNF11 antibody; control IP with antibody omitted; immunoblot with anti-A20 and Itch; densitometry normalised to input, 0 minutes set at 100%
Conditions: partners not purified

Itch immunoreactivity in RNF11 immunoprecipitates after 30 minutes of TNF-α, relative to 0 minutes (100%): 166%
B1: endogenous Itch (murine primary cortical neurons) (natural protein)
chain: not shown
notes: E3 ligase Itch (also known as AIP4), endogenous in primary cortical neurons of C57BL/6 mice; also called AIP4; source: endogenous, murine primary cortical neuron lysate

A20 immunoreactivity in RNF11 immunoprecipitates after 30 minutes of TNF-α, relative to 0 minutes (100%): 129%
B2: endogenous A20 (murine primary cortical neurons) (natural protein, UniProt Q60769 1-775, looked up)
chain: MAEQLLPQALYLSNMRKAVKIRERTPEDIFKPTNGIIYHFKTMHRYTLEMFRTCQFCPQFREIIHKALIDRSVQASLESQKKLNWCREVRKLVALKTNGDGNCLMHAACQYMWGVQDTDLVLRKALCSTLKETDTRNFKFRWQLESLKSQEFVETGLCYDTRNWNDEWDNLVKMASADTPAARSGLQYNSLEEIHIFVLSNILRRPIIVISDKMLRSLESGSNFAPLKVGGIYLPLHWPAQECYRYPIVLGYDSQHFVPLVTLKDSGPELRAVPLVNRDRGRFEDLKVHFLTDPENEMKEKLLKEYLIVMEIPVQGWDHGTTHLINAAKLDEANLPKEINLVDDYFELVQHEYKKWQENSDQARRAAHAQNPLEPSTPQLSLMDIKCETPNCPFFMSVNTQPLCHECSERRQKNQSKLPKLNSKLGPEGLPGVGLGSSNWSPEETAGGPHSAPPTAPSLFLFSETTAMKCRSPGCPFTLNVQHNGFCERCHARQINASHTADPGKCQACLQDVTRTFNGICSTCFKRTTAEPSSSLTSSIPASCHQRSKSDPSQLIQSLTPHSCHRTGNVSPSGCLSQAARTPGDRAGTSKCRKAGCMYFGTPENKGFCTLCFIEYRENKQSVTASEKAGSPAPRFQNNVPCLGRECGTLGSTMFEGYCQKCFIEAQNQRFHEARRTEEQLRSSQHRDMPRTTQVASRLKCARASCKNILACRSEELCMECQHLSQRVGSVAHRGEPTPEEPPKQRCRAPACDHFGNAKCNGYCNECYQFKQMYG
notes: A20 (TNF-α-induced protein 3, TNFAIP3), endogenous in primary cortical neurons of C57BL/6 mice; also called TNFAIP3; source: endogenous, murine primary cortical neuron lysate
